Assay results reported in the supplement of paper PMC6757056.
± gives the standard deviation of the averaged measurements.

B1: library; a variant is named by its letters at N, in order (parent)
chain: GCUGUCACCGGUGCUUGGUACGUUAUAUUCAGCCGGUCUGAUGAGUCUNNNNNNAGACGAAACAGC

Assays:
(6R,S)-folinic acid [1] = variants of: B1; test: normalized RNA/DNA level without ligand (relative to sTRSVctl = 100) (log10 (% of sTRSVctl)); HEK293T overexpressing SLC46A1; higher = less ribozyme self-cleavage, higher mRNA level; conditions: without (6R,S)-folinic acid; ligand present: no
Method in brief: (§1)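 Total RNA, extracted with EDTA 72 h after HEK293T cells were transfected with 4 µg per 6-well well of reporter-linked ribozyme switch library plasmids, was reverse-transcribed, amplified, barcoded and sequenced. Ligand, if used, was added 1 h before transfection. RNA level was derived from RNA reads divided by DNA reads and normalized to a spiked-in non-cleaving sequence or to the top sequences. This was multiplied by 100 and log10-transformed, with the top set of 25 sequences and a ≥100 DNA read minimum.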

(6R,S)-folinic acid [2] = variants of: B1; test: normalized RNA/DNA level with ligand (relative to sTRSVctl = 100) (log10 (% of sTRSVctl)); HEK293T overexpressing SLC46A1; ligand concentration (+) RNA-Seq: 6 mM; higher = less ribozyme self-cleavage, higher mRNA level; conditions: with (6R,S)-folinic acid; ligand present: yes
Method in brief: as §1

Row | Variant | normalized RNA/DNA level without ligand (log10) ((6R,S)-folinic acid [1]) | normalized RNA/DNA level with ligand (log10) ((6R,S)-folinic acid [2])
1 | CAGAAC | 2.003 ± 0.0049 | 2.02 ± 0.056
2 | CAGAAG | 1.925 ± 0.006 | 2.02 ± 0.03
3 | UAUAGU | 1.874 ± 0.014 | 1.97 ± 0.041
4 | GAGGCU | 2.073 ± 0.0028 | 2.04 ± 0.022
5 | GAGGCC | 2.041 ± 0.0098 | 2.044 ± 0.012
6 | GAGGCG | 2.003 ± 0.014 | 2.05 ± 0.055
7 | CAGCCG | 2.044 ± 0.0032 | 2.053 ± 0.019
8 | CAGCCA | 1.9832 ± 0.0011 | 2.01 ± 0.063
9 | CAGCCC | 2.077 ± 0.02 | 2.027 ± 0.013
10 | GAGAUC | 2.038 ± 0.0061 | 2.001 ± 0.014
11 | GAGAUU | 2.017 ± 0.0046 | 2.01 ± 0.022
12 | GAGAUG | 1.926 ± 0.0081 | 2.02 ± 0.035
13 | GAGAUA | 1.993 ± 0.011 | 2.03 ± 0.026
14 | UAGUGU | 1.901 ± 0.008 | 1.99 ± 0.0065
15 | UAGUGA | 1.8778 ± 0.0018 | 2 ± 0.025
16 | GAGCCC | 2.023 ± 0.013 | 2.02 ± 0.053
17 | CAUACC | 2.027 ± 0.004 | 2.03 ± 0.029
18 | CAUACG | 1.987 ± 0.0082 | 2 ± 0.023
19 | CAUACA | 2.001 ± 0.0091 | 1.98 ± 0.048
20 | CAUACU | 2.01 ± 0.018 | 2.03 ± 0.051
21 | GAGUUU | 2 ± 0.02 | 2.01 ± 0.037
22 | GAGUUC | 2.013 ± 0.02 | 2.025 ± 0.014
23 | GAGUUA | 2.008 ± 0.0034 | 2.03 ± 0.022
24 | UACUUU | 2.001 ± 0.0048 | 2.03 ± 0.042
25 | UACUUC | 2.0503 ± 0.00055 | 2.03 ± 0.042
26 | UACUUA | 1.9834 ± 0.00066 | 2.01 ± 0.0084
27 | AAGGCG | 1.9326 ± 0.0006 | 2.03 ± 0.036
28 | AAGGCU | 1.995 ± 0.011 | 2.019 ± 0.0048
29 | AAGGCA | 2.007 ± 0.0039 | 2.04 ± 0.022
